Numbering of substitutions follows the chain as printed. Names may count otherwise.
B1: VH G57D (27BIT) (Fab, V domains shown)
VH: EVQLVQSGAEVKKPGASVKVSCKASGYTFTSYWMHWVRQAPGQGLEWMGRIDPQSGDIKYAQKFQGRATLTVDTSTSTAYMELSRLRSDDTAVYYCARWDYGGYFDVWGQGTLVTVSS
VL: DIQMTQSPSSLSASVGDRVTITCRASQDITNYLNWYQQKPGKAVKLLIYYTSRLHSGVPSRFSGSGSGTDYTLTISSLQPEDFATYFCQQGDTLPWTFGQGTKLEIKR
notes: Light chain: parental 20E6 LC, implied
B2: VH K59W (61BIT) (Fab, V domains shown)
VH: B1 VH with D57G, K59W
VL: B1 VL
notes: as for B1
B3: VH H35K (30BIT) (Fab, V domains shown)
VH: B1 VH with H35K, D57G
VL: B1 VL
notes: as for B1
B4: VH H35R (62BIT) (Fab, V domains shown)
VH: B1 VH with H35R, D57G
VL: B1 VL
notes: as for B1
B5: VH K59Q (28BIT) (Fab, V domains shown)
VH: B1 VH with D57G, K59Q
VL: B1 VL
notes: as for B1
B6: VH G57E (63BIT) (Fab, V domains shown)
VH: B1 VH with D57E
VL: B1 VL
notes: as for B1
B7: VH G102S (29BIT) (Fab, V domains shown)
VH: B1 VH with D57G, G102S
VL: B1 VL
notes: as for B1
B8: VL S56Y (53BIT) (Fab, V domains shown)
VH: B1 VH with D57G
VL: B1 VL with S56Y
B9: VL T51Y (48BIT) (Fab, V domains shown)
VH: B1 VH with D57G
VL: B1 VL with T51Y
B10: VL D92Y (57BIT) (Fab, V domains shown)
VH: B1 VH with D57G
VL: B1 VL with D92Y
B11: VL I29Y (43BIT) (Fab, V domains shown)
VH: B1 VH with D57G
VL: B1 VL with I29Y
B12: VL G91Y (56BIT) (Fab, V domains shown)
VH: B1 VH with D57G
VL: B1 VL with G91Y
B13: VL N34Y (47BIT) (Fab, V domains shown)
VH: B1 VH with D57G
VL: B1 VL with N34Y
B14: VL L94Y (59BIT) (Fab, V domains shown)
VH: B1 VH with D57G
VL: B1 VL with L94Y
B15: VL R53Y (50BIT) (Fab, V domains shown)
VH: B1 VH with D57G
VL: B1 VL with R53Y
B16: VL Q89Y (54BIT) (Fab, V domains shown)
VH: B1 VH with D57G
VL: B1 VL with Q89Y
B17: VL S52Y (49BIT) (Fab, V domains shown)
VH: B1 VH with D57G
VL: B1 VL with S52Y
B18: VL D28Y (42BIT) (Fab, V domains shown)
VH: B1 VH with D57G
VL: B1 VL with D28Y
B19: VL R24Y (38BIT) (Fab, V domains shown)
VH: B1 VH with D57G
VL: B1 VL with R24Y
B20: VL H55Y (52BIT) (Fab, V domains shown)
VH: B1 VH with D57G
VL: B1 VL with H55Y
B21: VH T30Y (69BIT) (Fab, V domains shown)
VH: B1 VH with T30Y, D57G
VL: B1 VL
B22: VL N31Y (45BIT) (Fab, V domains shown)
VH: B1 VH with D57G
VL: B1 VL with N31Y
B23: VH W95Y (88BIT) (Fab, V domains shown)
VH: B1 VH with D57G, W99Y
VL: B1 VL
B24: VL S26Y (40BIT) (Fab, V domains shown)
VH: B1 VH with D57G
VL: B1 VL with S26Y
B25: VL P95Y (60BIT) (Fab, V domains shown)
VH: B1 VH with D57G
VL: B1 VL with P95Y
B26: VL T93Y (58BIT) (Fab, V domains shown)
VH: B1 VH with D57G
VL: B1 VL with T93Y
B27: VL A25Y (39BIT) (Fab, V domains shown)
VH: B1 VH with D57G
VL: B1 VL with A25Y
B28: VH W33Y (71BIT) (Fab, V domains shown)
VH: B1 VH with W33Y, D57G
VL: B1 VL
B29: VL Q90Y (55BIT) (Fab, V domains shown)
VH: B1 VH with D57G
VL: B1 VL with Q90Y
B30: VL Q27Y (41BIT) (Fab, V domains shown)
VH: B1 VH with D57G
VL: B1 VL with Q27Y
B31: VL L33Y (46BIT) (Fab, V domains shown)
VH: B1 VH with D57G
VL: B1 VL with L33Y
B32: VL T30Y (44BIT) (Fab, V domains shown)
VH: B1 VH with D57G
VL: B1 VL with T30Y
B33: VL L54Y (51BIT) (Fab, V domains shown)
VH: B1 VH with D57G
VL: B1 VL with L54Y

Target: T1, human LAP-TGFB1 Fc fusion (human)
T1 construct: also called human LAP-TGFβ1-Fc; human LAP-TGFβ-Fc isoform 1
Experiment: BLI off-rate screen
Protocol: (§1) The Fab mutants including a positive control, 20E6 Fab, and a negative control Fab (Molecular Innovations, catalog HU-FAB-4510) were diluted to 200 nM in assay buffer and loaded to FAB2G sensors for 180 seconds followed by a one-hour incubation at room temperature in assay buffer to equilibrate the tips. The Fab loaded sensors were assessed for binding with 100 nM human LAP-TGFβ for 180 seconds followed by a 180 second dissociation phase in assay buffer on a ForteBio HTX (software version 9.0.0.66). Non-specific binding to the negative control Fab was subtracted and the binding sensorgrams were aligned to the start of the association phase on the X and Y axis. The Fab binding was fit with the 1:1 binding model, dissociation phase only, with local fitting using ForteBio Data Analysis 9.0 software.

T1 sequence (chain, as listed by the source limits assumed): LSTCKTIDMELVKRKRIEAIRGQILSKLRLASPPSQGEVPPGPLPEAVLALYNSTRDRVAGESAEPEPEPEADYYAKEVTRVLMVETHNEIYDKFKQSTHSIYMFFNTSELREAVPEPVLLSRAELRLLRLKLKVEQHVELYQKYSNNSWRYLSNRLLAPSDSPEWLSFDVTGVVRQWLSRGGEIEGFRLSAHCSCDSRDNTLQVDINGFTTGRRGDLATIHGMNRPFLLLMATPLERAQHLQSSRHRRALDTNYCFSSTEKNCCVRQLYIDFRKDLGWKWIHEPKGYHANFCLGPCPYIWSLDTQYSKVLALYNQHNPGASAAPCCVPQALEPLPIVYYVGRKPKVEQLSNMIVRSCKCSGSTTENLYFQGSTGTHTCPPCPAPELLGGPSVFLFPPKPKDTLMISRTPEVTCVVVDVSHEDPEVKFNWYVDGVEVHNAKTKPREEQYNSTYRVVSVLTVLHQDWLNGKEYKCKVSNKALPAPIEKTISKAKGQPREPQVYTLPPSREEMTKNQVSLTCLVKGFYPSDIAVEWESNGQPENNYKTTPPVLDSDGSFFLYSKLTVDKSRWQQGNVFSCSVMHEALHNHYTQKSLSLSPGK

Binding response | Fold change | koff | binding result | Binder
0.582 nm | 1.3 fold | 0.0337 s⁻¹ | – | B1
0.035 nm | – | – | no binding (tested: 100 nM antigen) | B2
0.115 nm | 0.8 fold | 0.0548 s⁻¹ | – | B3
0.021 nm | – | – | no binding (tested: 100 nM antigen) | B4
0.165 nm | 0.7 fold | 0.0596 s⁻¹ | – | B5
0.69 nm | 1.1 fold | 0.0393 s⁻¹ | – | B6
0.087 nm | 0.5 fold | 0.0845 s⁻¹ | – | B7

Target: T1, human LAP-TGFB1 Fc fusion
Experiment: BLI off-rate screen
Remark: another data set of the same source
Protocol: as §1
Twenty-three variants containing a single tyrosine substitution in the light chain CDRs (at one of amino acid positions 24-31, 33, 34, 51-56, and 89-95 according to Kabat numbering scheme) and 21 similar heavy chain CDR variants (at amino acids positions 28-31, 33-35, 50-58 including 52a, 95, 96, 98, and 99 according to Kabat numbering scheme) were generated according to FIG. 1 and listed in Table 6 and their interactions with human LAP-TGFb1 were analyzed by ForteBio interferometry. […] In those sequences the VL is correct, even though these sequences are from the heavy chain. Thus, the VL_X ##Y refers to the position of the tyrosine mutation within the antibody, regardless of whether the sequence is a heavy or light chain.

Binding response | Fold change | koff | binding result | Binder
0.344 nm | 1.3 fold | 0.0324 s⁻¹ | – | B8
0.204 nm | 0.8 fold | 0.0508 s⁻¹ | – | B9
0.046 nm | – | – | no binding (tested: 100 nM antigen) | B10
0.071 nm | 1.6 fold | 0.0264 s⁻¹ | – | B11
0.044 nm | – | – | no binding (tested: 100 nM antigen) | B12
0.221 nm | 1 fold | 0.0436 s⁻¹ | – | B13
0.308 nm | 0.7 fold | 0.0571 s⁻¹ | – | B14
0.365 nm | 1.6 fold | 0.027 s⁻¹ | – | B15
0.035 nm | – | – | no binding (tested: 100 nM antigen) | B16
0.431 nm | 1 fold | 0.0409 s⁻¹ | – | B17
0.207 nm | 1.3 fold | 0.0318 s⁻¹ | – | B18
0.446 nm | 1.6 fold | 0.027 s⁻¹ | – | B19
0.265 nm | 1.1 fold | 0.0385 s⁻¹ | – | B20
0.372 nm | 1.2 fold | 0.0365 s⁻¹ | – | B21
0.344 nm | 1.8 fold | 0.0241 s⁻¹ | – | B22
0.638 nm | 1 fold | 0.0425 s⁻¹ | – | B23
0.371 nm | 1.5 fold | 0.0283 s⁻¹ | – | B24
0.015 nm | – | – | no binding (tested: 100 nM antigen) | B25
0.586 nm | 1.5 fold | 0.0273 s⁻¹ | – | B26
0.043 nm | – | – | no binding (tested: 100 nM antigen) | B27
0.77 nm | 1.8 fold | 0.023 s⁻¹ | – | B28
0.04 nm | – | – | no binding (tested: 100 nM antigen) | B29
0.427 nm | 1.8 fold | 0.0229 s⁻¹ | – | B30
0.095 nm | 1 fold | 0.0413 s⁻¹ | – | B31
0.472 nm | 2.6 fold | 0.0162 s⁻¹ | – | B32
0.299 nm | 1 fold | 0.0405 s⁻¹ | – | B33

— patent US20230272056A1 (Merck Sharp & Dohme, published 2023)
